For test [1], the target named is purified human CD5 ectodomain (human) (UniProt P06127). Put plainly: BLI (Octet Red96), antibody on anti-human Fc biosensors, 50 nM CD5 ectodomain, 25 C. (In general: BLI is a label-free optical method that tracks binding on a fibre tip over time.)
Test [2] concerns the target human CD5 on cells (MOLT-4 human T lymphoblast cell line; primary human T-cells) (human) (UniProt P06127). Put plainly: flow cytometry on primary human T-cells, antibody titration, fluorophore-conjugated (AF488) secondary anti-IgG, MFI. (In general: Flow cytometry measures light scatter and fluorescence of single cells or particles in a stream.)

B1: anti-CD5 antibody 5D7 hIgG1 (humanized version of murine antibody 5D7) (antibody, V domains shown)
VH: QVTLKESGPVLVKPTETLTLTCTFSGFSLSTSGMGVGWIRQAPGKGLEWVAHIWWDDDVYYNPSLKSRLTITKDASKDQVSLKLSSVTAADTAVYYCVRRRATGTGFDYWGQGTLVTVSS
VL: NIVMTQSPSSLSASVGDRVTITCQASQDVGTAVAWYQQKPDQSPKLLIYWTSTRHTGVPDRFTGSGSGTDFTLTISSLQPEDIATYFCHQYNSYNTFGSGTKLEIK
One may read the EC50 (read off the curve) as the concentration needed to bring the measured effect to its halfway point. Low values mean greater potency, high ones weaker potency. In test [1], B1 came in with a Response (nm) of 0.67 nm. The EC50 (read off the curve) in test [2] is 0.03 nM.

The record behind these values is patent publication US20210369854A1.
